Measurements as given in US20240150451A1 (Janssen / Centocor, published 2024).

Columns and labels:
[1] = molecular target: T1, recombinant full-length tau 2N4R (control tau) (human, UniProt P10636 2-758); test: direct ELISA on full-length 2N4R Tau coated at 1 ng/mL
T1 construct: also called recombinant WT (2N4R) tau; Rec; Tau
Method: (§1) Binding to recombinant WT (2N4R) tau was analyzed by ELISA. Full-length Tau protein (1 ng/mL or 10 ng/mL) was directly coated to the plate and incubated with different concentrations of either recombinantly- or hybridoma-produced PT/66, PT/69 or hTau/60 antibodies (FIG. 1). […] No substantial difference was observed between binding profiles of recombinant and hybridoma produced antibodies.

[2] = molecular target: T1, recombinant full-length tau 2N4R …; test: direct ELISA on full-length 2N4R Tau coated at 10 ng/mL
Method: as §1

[3] = molecular target: T2, Tau peptide Start 413 Stop 432; test: Pepscan ELISA on an array of linear 20-mer Tau 441 peptides; set-up: peptide ELISA signal (no name or unit printed): unit not given here
T2 peptide: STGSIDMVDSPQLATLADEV
Excerpt: (§2) An amino functionalized polypropylene support was obtained by grafting with a proprietary hydrophilic polymer formulation, followed by reaction with t-butyloxycarbonyl-hexamethylenediamine (BocHMDA) using dicyclohexylcarbodiimide (DCC) with N-hydroxybenzotriazole (HOBt), and subsequent cleavage of the Boc-groups using trifluoroacetic acid (TFA). Standard Fmoc-peptide synthesis was used to synthesize peptides on the amino-functionalized solid support by custom modified JANUS liquid handling stations (Perkin Elmer). Synthesis of structural mimics was done using Pepscan's proprietary Chemically Linked Peptides on Scaffolds (CLIPS) technology. CLIPS technology allows to structure peptides into single loops, double loops, triple loops, sheet-like folds, helix-like folds, and combinations thereof. CLIPS templates are coupled to cysteine residues. The side-chains of multiple cysteines in the peptides are coupled to one or two CLIPS templates. For example, a 0.5 mM solution of the P2 CLIPS (2,6-bis(bromomethyl)pyridine) is dissolved in ammonium bicarbonate (20 mM, pH 7.8)/acetonitrile (1:3 (v/v)). This solution is added onto the peptide arrays. The CLIPS template will bind to side-chains of two cysteines as present in the solid-phase bound peptides of the peptide-arrays (455 wells plate with 3 μl wells). The peptide arrays are gently shaken in the solution for 30 to 60 minutes while completely covered in solution. Finally, the peptide arrays are washed extensively with excess of H₂O and sonicated in disrupt-buffer containing 1% SDS/0.1% beta-mercaptoethanol in PBS (pH 7.2) at 70° C. for 30 minutes, followed by sonication in H₂O for another 45 minutes. The T3 CLIPS carrying peptides were made in a similar way but now with three cysteines.
(§3) The binding of antibodies (recombinantly expressed as IgG2a) to each of the synthesized peptides was tested in a pepscan-based ELISA. The peptide arrays were incubated with primary antibody solution (overnight at 4° C.). After washing, the peptide arrays were incubated with a 1/1000 dilution of an appropriate antibody peroxidase conjugate (SBA; Table 4) for one hour at 25° C. After washing, the peroxidase substrate 2,2′-azino-di-3-ethylbenzthiazoline sulfonate (ABTS) and 20 μl/ml of 3 percent H₂O₂ were added. After one hour, the color development was measured.

[4] = molecular target: T3, Tau peptide Start 419 Stop 438; test: as above; set-up: peptide ELISA signal (no name or unit printed): unit not given here
T3 peptide: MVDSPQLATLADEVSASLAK
Excerpt: as §2, §3

[5] = molecular target: T4, Tau peptide Start 417 Stop 436; test: as above; set-up: peptide ELISA signal (no name or unit printed): unit not given here
T4 peptide: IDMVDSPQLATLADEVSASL
Excerpt: as §2, §3

[6] = molecular target: T5, Tau peptide Start 411 Stop 430; test: as above; set-up: peptide ELISA signal (no name or unit printed): unit not given here
T5 peptide: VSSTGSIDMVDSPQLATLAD
Excerpt: as §2, §3

[7] = molecular target: T6, Tau peptide Start 415 Stop 434; test: as above; set-up: peptide ELISA signal (no name or unit printed): unit not given here
T6 peptide: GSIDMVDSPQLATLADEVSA
Excerpt: as §2, §3

[8] = molecular target: T7, Tau peptide Start 422 Stop 441; test: as above; set-up: peptide ELISA signal (no name or unit printed): unit not given here
T7 peptide: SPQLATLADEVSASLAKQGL
Excerpt: as §2, §3

[9] = molecular target: T8, Tau peptide Start 3 Stop 22 (Synthetic linear peptide immobilised on a Pepscan array; the attachment to the array cannot be carried by the letters.); test: as above; set-up: peptide ELISA signal (no name or unit printed): unit not given here
T8 peptide: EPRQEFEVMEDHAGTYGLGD
Excerpt: as §2, §3

[10] = molecular target: Tau peptide Start 1 Stop 20 (Synthetic linear peptide immobilised on a Pepscan array; the attachment to the array cannot be carried by the letters.); test: as above; set-up: peptide ELISA signal (no name or unit printed): unit not given here
Excerpt: as §2, §3

[11] = molecular target: T9, Tau peptide Start 421 Stop 440; test: as above; set-up: peptide ELISA signal (no name or unit printed): unit not given here
T9 peptide: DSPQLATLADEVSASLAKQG
Excerpt: as §2, §3

[12] = molecular target: T10, PHF-tau (paired helical filament tau; sarcosyl insoluble prep from human AD brain) (human, UniProt P10636-8 2-441, limits assumed, hyper-phosphorylated (sites not specified)); test: SPR (ProteOn), mAb on PHF-tau, bivalent analyte fit; apparent affinity (avidity)
T10 construct: also called aggregated PHF Tau; aggregated tau (AD brain)
Method: (§4) The interactions with PHF-tau and recombinant tau were assessed by SPR on ProteOn (Bio-Rad, Hercules, CA) instrument for PT66, PT69, hTau60 anti-tau antibodies and their corresponding Fab fragments. Because of the multimeric/aggregated nature of PHF-tau with multiple copies of the epitope, and the bivalent nature of IgGs, mAb affinity was influenced by avidity in this study format. Fab affinity provides information on the intrinsic affinity of the antibody. Representative sensorgrams of mAbs and their Fab fragments binding to PHF Tau are shown in FIG. 3 and a summary is represented in Table 1 below. HT7 was used as a reference.

[13] = molecular target: T1, recombinant full-length tau 2N4R …; test: SPR (ProteOn), Fab on recombinant full-length tau, 1:1 Langmuir fit
Method: as §4

[14] = molecular target: T10, PHF-tau (paired helical filament tau; …); test: SPR (ProteOn), Fab on PHF-tau, 1:1 Langmuir fit
Method: as §4

Chain of Tau peptide Start 1 Stop 20 (Synthetic linear peptide immobilised on a Pepscan array; the attachment to the array cannot be carried by the letters.) (peptide, as listed by the source limits assumed): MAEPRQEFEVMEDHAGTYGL

Row | Binder | EC50 (read off the curve) [1] | EC50 (read off the curve) [2] | peptide ELISA signal (no name or unit printed) [3] | peptide ELISA signal (no name or unit printed) [4] | peptide ELISA signal (no name or unit printed) [5] | peptide ELISA signal (no name or unit printed) [6] | peptide ELISA signal (no name or unit printed) [7] | peptide ELISA signal (no name or unit printed) [8] | peptide ELISA signal (no name or unit printed) [9] | peptide ELISA signal (no name or unit printed) [10] | peptide ELISA signal (no name or unit printed) [11] | Kd [12] | Kd [13] | Kd [14] | binding result [3] | binding result [4] | binding result [5] | binding result [7]
1 | PT66 monoclonal antibody (recombinant, mouse IgG2a/kappa) (antibody, V domains shown, also called PT66 (PT1B545)) VH: QVQLQQPGAELVKPGASVKMSCKASGYTFTSYWITWVKQRPGQGLEWIGDIHPGRGSTKSNEKFKSKATLTVDTSSSTAYMQFSSLTSEDSAVYYCARRWGFDYWGQGTTLTVSS VL: DIVITQDELSNPVTSGESVSISCRSSKSLLYKDGKTYLNWFLQRPGQSPQLLIYLMSTRASGVSDRFSGSGSGTDFTLEISRVKAEDVGVYYCQQLVDYPLTFGAGTKLELKR | ~40 ng/mL | ~10 ng/mL | 2520 | 2930 | 2940 | 50 | 2930 | 2950 | 45 | 40 | 2930 | 0.056 nM |  |  |  |  |  | 
2 | PT69 monoclonal antibody (recombinant, mouse IgG2a/kappa) (antibody, V domains shown, also called PT69/PT87; PT69 (PT1B548)) VH: QVQLQQPGAELVKPGASVKMSCKASGYTFTNYWITWVKQRPGQGLEWIGDIYPGSGRTKSNEKFKNKATLTADTSSSTAYMQLSSLTSEDSAVYYCTRRWGLDYWGQGTTLTVSS VL: DIVITQDELSNPVTSGESVSISCRSNKSLLYKDGKTYLNWFLQRPGQSPQLLIYLMSTRASGVSDRFSGSGSGTDFTLEISRVKAEDVGVYYCQQLVDYPLTFGAGTKLELKR |  |  | 1380 | 2920 | 2920 | 43 | 2830 | 2930 | 38 | 30 | 2930 |  |  |  |  |  |  | 
3 | hTau60 monoclonal antibody (recombinant, mouse IgG2a/kappa) (antibody, V domains shown, also called hTau60 (PT1B469)) VH: EVQLQQSGPELVKPGTSVKISCKVFGYTFTDYYMNWVKQSHGKSLEWIGDINPDNGETTYNQKFKGKATLTVDKSSSTAYMELRSLTSEDSAVYYCAKGATFVYWGQGTLVTVSA VL: DVVMTQTPLSLPVSLGDQASISCISSQSLVHSTGTTFLHWFLQKPGQSPKLLIYKVSNRFSGVPDRFSGSGSGTDFTLKISRVEAEDLGFYFCSQSTYFPLTFGSGTKLEIKR | ~10 ng/mL | ~10 ng/mL | 46 | 45 | 48 | 36 | 24 | 2920 | 44 | 48 | 2910 | 0.069 nM |  |  | no binding | no binding | no binding | no binding
4 | hTau/60 hybridoma (antibody, V domains shown, parent of m1; also called hybridoma-produced hTau/60) VH: EVQLQQSGPELVKPGTSVKISCKVFGYTFTDYYMNWVKQSHGKSLEWIGDINPDNGETTYNQKFKGKATLTVDKSSSTAYMELRSLTSEDSAVYYCAKGATFVYWGQGTLVTVSA VL: DVVMTQTPLSLPVSLGDQASISCISSQSLVHSTGTTFLHWFLQKPGQSPKLLIYKVSNRFSGVPDRFSGSGSGTDFTLKISRVEAEDLGFYFCSQSTYFPLTFGSGTKLEIK | ~5 ng/mL | ~5 ng/mL |  |  |  |  |  |  |  |  |  |  |  |  |  |  |  | 

Continued, values first:

Row | EC50 (read off the curve) [1] | EC50 (read off the curve) [2] | peptide ELISA signal (no name or unit printed) [3] | peptide ELISA signal (no name or unit printed) [4] | peptide ELISA signal (no name or unit printed) [5] | peptide ELISA signal (no name or unit printed) [6] | peptide ELISA signal (no name or unit printed) [7] | peptide ELISA signal (no name or unit printed) [8] | peptide ELISA signal (no name or unit printed) [9] | peptide ELISA signal (no name or unit printed) [10] | peptide ELISA signal (no name or unit printed) [11] | Kd [12] | Kd [13] | Kd [14] | binding result [3] | binding result [4] | binding result [5] | binding result [7] | Binder
5 | ~10 ng/mL | ~5 ng/mL |  |  |  |  |  |  |  |  |  |  |  |  |  |  |  |  | PT/66 hybridoma (antibody, V domains shown, parent of m2; also called hybridoma-produced PT/66) VH: QVQLQQPGAELVKPGASVKMSCKASGYTFTSYWITWVKQRPGQGLEWIGDIHPGRGSTKSNEKFKSKATLTVDTSSSTAYMQFSSLTSEDSAVYYCARRWGFDYWGQGTTLTVSS VL: DIVITQDELSNPVTSGESVSISCRSSKSLLYKDGKTYLNWFLQRPGQSPQLLIYLMSTRASGVSDRFSGSGSGTDFTLEISRVKAEDVGVYYCQQLVDYPLTFGAGTKLELK
6 |  |  |  |  |  |  |  |  |  |  |  |  | 0.04 nM | 0.514 nM |  |  |  |  | PT66 Fab (chimeric: mouse variable domains, human IgG1/kappa constant domains, His tag) (Fab, V domains shown, Fab expressed in HEK293F cells; also called PT66 Fab fragment; not shown: His tag at the C-terminus of the heavy chain; human kappa light chain constant domain) VH: QVQLQQPGAELVKPGASVKMSCKASGYTFTSYWITWVKQRPGQGLEWIGDIHPGRGSTKSNEKFKSKATLTVDTSSSTAYMQFSSLTSEDSAVYYCARRWGFDYWGQGTTLTVSS VL: DIVITQDELSNPVTSGESVSISCRSSKSLLYKDGKTYLNWFLQRPGQSPQLLIYLMSTRASGVSDRFSGSGSGTDFTLEISRVKAEDVGVYYCQQLVDYPLTFGAGTKLELK
7 |  |  |  |  |  |  |  |  |  |  |  |  | 0.026 nM | 0.427 nM |  |  |  |  | hTau60 Fab (chimeric: mouse variable domains, human IgG1/kappa constant domains, His tag) (Fab, V domains shown, Fab expressed in HEK293F cells; also called hTau60 Fab fragment; not shown: His tag at the C-terminus of the heavy chain; human kappa light chain constant domain) VH: EVQLQQSGPELVKPGTSVKISCKVFGYTFTDYYMNWVKQSHGKSLEWIGDINPDNGETTYNQKFKGKATLTVDKSSSTAYMELRSLTSEDSAVYYCAKGATFVYWGQGTLVTVSA VL: DVVMTQTPLSLPVSLGDQASISCISSQSLVHSTGTTFLHWFLQKPGQSPKLLIYKVSNRFSGVPDRFSGSGSGTDFTLKISRVEAEDLGFYFCSQSTYFPLTFGSGTKLEIK
